Test results taken from patent US20070270486.

Molecular target: T1, Myocilin tagged at its C-terminus with S-peptide, Q99972
T1 chain: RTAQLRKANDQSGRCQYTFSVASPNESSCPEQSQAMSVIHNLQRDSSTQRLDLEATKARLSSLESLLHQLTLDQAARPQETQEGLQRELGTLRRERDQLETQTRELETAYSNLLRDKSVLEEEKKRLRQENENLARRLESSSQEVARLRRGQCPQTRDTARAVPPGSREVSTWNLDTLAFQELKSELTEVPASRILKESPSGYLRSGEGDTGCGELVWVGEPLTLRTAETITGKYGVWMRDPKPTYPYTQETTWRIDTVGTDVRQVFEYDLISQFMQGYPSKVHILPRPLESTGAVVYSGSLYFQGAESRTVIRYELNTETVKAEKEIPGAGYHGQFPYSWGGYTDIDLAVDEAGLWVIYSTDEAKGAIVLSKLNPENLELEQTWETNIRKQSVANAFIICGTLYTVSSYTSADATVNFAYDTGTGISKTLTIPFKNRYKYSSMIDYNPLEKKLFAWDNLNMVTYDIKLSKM

B1: S-protein (protein)
chain: SSSNYCNQMMKSRNLTKDRCKPVNTFVHESLADVQAVCSQKNVACKNGQTNCYQSYSTMSITDCRETGSSKYPNCAYKTTQANKHIIVACEGNPYVPVHFDASV
  RNAase analysis of culture medium (enzymatic recombination assay): the assay can detect secreted myocilin in less than 1 µl of media
